Experiments:
[1] = molecular target: Recombinant human ApoER2 (R&D Systems #3520-AR) (human) (UniProt Q14114); experiment: ELISA on plates coated with 1 µg/ml recombinant human ApoER2; sample: Basolateral/Abluminal medium of the transwell with hCMEC/D3 cells
[2] = molecular target: Recombinant human ApoER2 (R&D Systems #3520-AR) (human) (UniProt Q14114); experiment: ELISA on plates coated with 1 µg/ml recombinant human ApoER2; sample: Basolateral/Abluminal medium of the transwell with hCMEC/D3 cells, antibody premixed with a 10-fold excess of soluble recombinant human ApoER2
[3] = molecular target: Recombinant human ApoER2 (R&D Systems #3520-AR) (human) (UniProt Q14114); experiment: ELISA on plates coated with 1 µg/ml recombinant human ApoER2; sample: Apical/Luminal medium of the transwell with Empty Filter
[4] = molecular target: Recombinant human ApoER2 (R&D Systems #3520-AR) (human) (UniProt Q14114); experiment: direct ELISA: wells coated with 1 ug/ml recombinant human ApoER2, antibody titrated, HRP anti-mouse IgG detection
[5] = molecular target: Recombinant human ApoER2 (R&D Systems #3520-AR) (human) (UniProt Q14114); experiment: ELISA on plates coated with 1 µg/ml recombinant human ApoER2; sample: Apical/Luminal medium of the transwell with hCMEC/D3 cells, antibody premixed with a 10-fold excess of soluble recombinant human ApoER2 (low value put down to interference in the ELISA)
[6] = molecular target: Recombinant human ApoER2 (R&D Systems #3520-AR) (human) (UniProt Q14114); experiment: ELISA on plates coated with 1 µg/ml recombinant human ApoER2; sample: Basolateral/Abluminal medium of the transwell with Empty Filter
[7] = molecular target: Recombinant human ApoER2 (R&D Systems #3520-AR) (human) (UniProt Q14114); experiment: ELISA on plates coated with 1 µg/ml recombinant human ApoER2; sample: Apical/Luminal medium of the transwell with hCMEC/D3 cells

Chain of UniProt Q14114 (Q14114 other isoform, or with tags, fused parts or gaps limits assumed): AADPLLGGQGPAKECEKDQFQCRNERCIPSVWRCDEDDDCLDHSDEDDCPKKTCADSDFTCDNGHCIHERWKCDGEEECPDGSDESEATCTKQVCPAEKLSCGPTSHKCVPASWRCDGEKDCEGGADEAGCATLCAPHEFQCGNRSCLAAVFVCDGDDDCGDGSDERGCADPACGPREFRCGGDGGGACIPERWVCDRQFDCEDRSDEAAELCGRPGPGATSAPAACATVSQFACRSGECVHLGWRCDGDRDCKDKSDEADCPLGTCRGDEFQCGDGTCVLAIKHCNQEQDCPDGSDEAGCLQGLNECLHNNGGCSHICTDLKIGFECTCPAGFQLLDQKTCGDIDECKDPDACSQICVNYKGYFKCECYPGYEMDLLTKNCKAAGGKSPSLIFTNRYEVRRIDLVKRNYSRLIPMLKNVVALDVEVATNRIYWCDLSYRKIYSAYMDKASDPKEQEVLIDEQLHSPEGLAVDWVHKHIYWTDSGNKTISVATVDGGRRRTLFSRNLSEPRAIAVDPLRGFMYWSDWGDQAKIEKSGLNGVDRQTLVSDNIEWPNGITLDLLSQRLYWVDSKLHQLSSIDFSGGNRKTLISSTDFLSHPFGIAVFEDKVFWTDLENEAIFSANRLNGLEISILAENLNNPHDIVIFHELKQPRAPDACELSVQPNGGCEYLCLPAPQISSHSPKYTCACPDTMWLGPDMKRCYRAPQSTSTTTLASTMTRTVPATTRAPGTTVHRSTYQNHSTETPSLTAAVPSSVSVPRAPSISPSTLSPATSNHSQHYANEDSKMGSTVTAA

Q: How did the Volume Adjusted OD450nm [1] turn out when “mouse monoclonal anti-human ApoER2 antibody (Abcam ab58216)” was run?
A: Its Volume Adjusted OD450nm is 0.138 OD450nm.

Q: What about the Volume Adjusted OD450nm [2] of the same substance?
A: Its Volume Adjusted OD450nm is 0.0789 OD450nm.

Q: What about the Volume Adjusted OD450nm [3] of the same substance?
A: Its Volume Adjusted OD450nm is 2.75 OD450nm.

Q: What about the IC50 [4] of the same substance?
A: Its IC50 is 0.068 µg/mL.

Q: What about the Volume Adjusted OD450nm [5] of the same substance?
A: The Volume Adjusted OD450nm was 0.537 OD450nm.

Q: What about the Volume Adjusted OD450nm [6] of the same substance?
A: Its Volume Adjusted OD450nm is 0.362 OD450nm.

Q: What about the Volume Adjusted OD450nm [7] of the same substance?
A: Its Volume Adjusted OD450nm is 3.57 OD450nm.

From patent US20130149237A1
